Laboratory results taken from patent publication US20250074980A1 (BRIGHAM AND WOMEN S HOSPITAL, published 2025).
Numbering of substitutions follows the chain as printed. Names and notes keep the numbering of the source. Values belong to the binder of their own block, whether it stands above or below them.

Tests used:
[1] = target: T1, His-tagged CEACAM1 (human, UniProt P13688 35-428); assay: SPR multi-cycle, IgG captured
T1 construct: 45 kDa SPR analyte; also called CEACAM1-HIS; CEACAM1 analyte
T1 sequence: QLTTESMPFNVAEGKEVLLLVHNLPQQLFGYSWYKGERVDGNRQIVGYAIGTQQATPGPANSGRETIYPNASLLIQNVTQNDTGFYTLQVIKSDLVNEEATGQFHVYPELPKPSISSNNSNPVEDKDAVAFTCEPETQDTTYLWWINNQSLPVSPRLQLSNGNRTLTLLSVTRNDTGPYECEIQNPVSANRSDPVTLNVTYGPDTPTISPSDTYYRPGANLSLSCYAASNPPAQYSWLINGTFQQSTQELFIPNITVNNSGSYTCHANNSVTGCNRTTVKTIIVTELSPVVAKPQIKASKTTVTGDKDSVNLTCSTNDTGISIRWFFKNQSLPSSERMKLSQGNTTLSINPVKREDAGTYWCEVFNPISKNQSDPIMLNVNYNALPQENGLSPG

[2] = target: T1, His-tagged CEACAM1; assay: SPR single-cycle, IgG captured
Summary of the method: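 Biacore T200 single-cycle kinetics at 25° C in HBS-P+ (pH 7.4): antibodies (purified or HEK EBNA supernatant, 1 μg/ml) captured on Protein A to ~75 RU, His-tagged CEACAM1 analyte at 3.125–50 nM (5-point 2-fold) at 50 μl/min without regeneration. Reference channel Fc1 subtracted.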

[3] = target: T1, His-tagged CEACAM1; assay: SPR single-cycle, supernatant IgG captured
Summary of the method: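 Humanized, affinity-matured IgGs from crude supernatant (0.5 μg/ml in HBS-P+) captured on Protein A to ~100 RU. Single-cycle kinetics: CEACAM1 at three concentrations, 70–280 nM two-fold, 80 μl/min, 80 s association each, 150 s dissociation. Reference-channel and blank-run subtraction applied.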

relative KD to VH0/Vκ0 [1]: 1
Kd [2]: 42 nM
relative KD to VH0/Vκ0 [2]: 1
B1: chimeric antibody VH0/Vκ0 (antibody, IgG4, V domains shown)
VH: EVQLVESGGDLVKPGGSLKLACAASGFIFSSHGMSWVRQTPDKRLEWVATISSGGTYTYYPDSVKGRFTISRDNDKNTLYLQMNSLKSEDTAMYYCARHDFDYDAAWFAYWGQGTLVTVSS
VL: QIVLTQSPALMSASPGVKVTMTCSANSSVSYMYWYRQKPRSSPKPWIYLTSNLASGVPARFSGSGSGTSYSLTISSMEAEDAATYYCQQWSSNPPTFGSGTKLEIK
notes: IgG4 (S241P), kappa; also called VH0/Vκ0 (control); Chimeric VH0/Vκ0

Kd [3]: 560 nM
koff [3]: 0.053 s⁻¹
kon [3]: 94000 M⁻¹ s⁻¹
relative KD to parent [3]: 1
B2: VH1/Vκ8 S29A (antibody, IgG4, V domains shown)
VH: B1 VH with V5L, D10G, K13Q, K19R, A21S, T40A, D42G, R44G, D75S, S88A
VL: EIVLTQSPATLSLSPGERATLSCRANSAVSYMYWYQQKPGQAPRPWIYLTSNRATGVPARFSGSGSGTDYTLTISSLEPEDFAVYYCQQWSSNPPTFGQGTKLEIK
notes: IgG4 (S241P), kappa; also called Parent; Parent (VH1/Vκ8 S29A)
